Test results as given in paper PMC4269169.

Molecular target: GST-FLAG-Pol12 of Candida glabrata (Candida glabrata)
Assay: pull-down

Q: With “His6-SUMO-Stn1 of Candida glabrata (natural protein)” as the substance, how does the stoichiometry N read?
A: 1
